Experimental data taken from article PMC4928834.

Assays:
[1] = molecular target: soluble part of FloA (flotillin A) with 6xHis tag (B. subtilis) (UniProt P54466); assay: SEC; FloA6His after Ni-NTA on HiLoad 26/600 Superdex 200 pg, 1.5 ml/min, 20 mM HEPES, 200 mM NaCl, 20 mM MgCl2, 20 mM KCl, pH 7.5
[2] = molecular target: soluble part of FloA (flotillin A) with Strep-tag (B. subtilis) (UniProt P54466); assay: SEC; FloAstrep after Strep-Tactin on Superose 6 10/300 GL, 0.5 ml/min, 100 mM Tris-Cl, 150 mM NaCl, pH 7.5
[3] = tested on: P54466; assay: SEC; HMW fraction of FloA-Strep run again on gel filtration undiluted, 3 fold and 5 fold diluted; peak areas measured

In the case of “soluble part of FloA (flotillin A) with 6xHis tag (from UniProt P54466 56-331) (domain or fragment)”, the stoichiometry N [1] is reported as 2.
In the case of “soluble part of FloA (flotillin A) with Strep-tag (from UniProt P54466 56-331) (domain or fragment)”, the stoichiometry N [2] is reported as 4.
For “soluble part of FloA (flotillin A) with Strep-tag”, the “percent of the protein in the HMW fraction (5-fold diluted)” value [3] was 82% are in the HMW fraction and 12% in the LMW peak, the “percent of the protein in the HMW fraction (undiluted or 3-fold diluted)” value [3] was “about 90% of the proteins are in the HMW fraction” and the “percent of the protein in the LMW peak (5-fold diluted)” value [3] was 82% are in the HMW fraction and 12% in the LMW peak.
